In patent publication US20180327746, “Alpha-AMYLASE-BINDING NUCLEIC ACID MOLECULE AND USE THEREOF” (NEC Solution Innovators, Ltd., published 2018):

Assays:
alpha-amylase [1] = target: T1, alpha-amylase (Homo sapiens, UniProt P0DUB6 P0DUB6:16-511); assay: SPR; SPR buffer with 1 mM MgCl2, pH 7.4; Chi2 4.3; details: tags: none stated; commercial human alpha-amylase, Lee Biosolutions; label: 3' poly(dA)20 captured on biotin-poly(dT)20
T1 sequence: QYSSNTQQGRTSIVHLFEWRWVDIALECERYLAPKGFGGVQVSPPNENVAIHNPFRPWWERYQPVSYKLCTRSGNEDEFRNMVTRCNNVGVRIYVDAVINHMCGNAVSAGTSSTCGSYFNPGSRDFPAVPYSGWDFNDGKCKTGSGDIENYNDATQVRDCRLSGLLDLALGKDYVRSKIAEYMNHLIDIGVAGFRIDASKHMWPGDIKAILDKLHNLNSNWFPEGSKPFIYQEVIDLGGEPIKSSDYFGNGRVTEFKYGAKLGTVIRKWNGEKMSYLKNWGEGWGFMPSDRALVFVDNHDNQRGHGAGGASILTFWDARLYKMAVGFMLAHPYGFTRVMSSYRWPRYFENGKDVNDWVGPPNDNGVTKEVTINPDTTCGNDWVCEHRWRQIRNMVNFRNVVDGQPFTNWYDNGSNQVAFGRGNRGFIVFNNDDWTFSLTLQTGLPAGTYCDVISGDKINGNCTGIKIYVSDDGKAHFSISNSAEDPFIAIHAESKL
Protocol: (§1) Biotinylated poly(dT) at 5 μmol/L was injected to a flow cell of the sensor chip using ultrapure water (DDW), and the binding was allowed to proceed until the signal intensity (RU: Resonance Unit) reached about 900 RU. The biotinylated poly(dT) was prepared by biotinylating the 5′ end of 20-mer deoxythymidine. Then, the poly(dA)-added aptamer at 200 nmol/L was injected to the flow cell of the chip using an SPR buffer at a flow rate of 25 μL/min for 80 seconds, and the binding was allowed to proceed until the signal intensity reached about 800 RU. […] With 0 seconds being the start of the injection, the mean value of signal intensities from 115 seconds to 125 seconds was determined. […] Then, the value (B/A) obtained by dividing the protein binding measured value (B) by the aptamer immobilization measured value (A) was determined as a relative value (Relative Unit).
(§2) The binding ability of the aptamers was analyzed by SPR in the same manner as in Example 1, except that the concentration of the α-amylase in the specimen was set to a plurality of values. The concentration was set to 20 nmol/L, 10 nmol/L, 5 nmol/L, 2.5 nmol/L, and 1.25 nmol/L. Then, from the results obtained by the SPR analysis, the kinetic parameter and the chi-squared value were calculated.

alpha-amylase [2] = target: T1, alpha-amylase; assay: SPR; SPR buffer with 1 mM MgCl2, pH 7.4; Chi2 3.85; details: tags: none stated; commercial human alpha-amylase, Lee Biosolutions; label: 3' poly(dA)20 captured on biotin-poly(dT)20
Protocol: as §1, §2

alpha-amylase [3] = target: T1, alpha-amylase; assay: SPR; SPR buffer with 1 mM MgCl2, pH 7.4; Chi2 4.17; details: tags: none stated; commercial human alpha-amylase, Lee Biosolutions; label: 3' poly(dA)20 captured on biotin-poly(dT)20
Protocol: as §1, §2

alpha-amylase [4] = target: T1, alpha-amylase; assay: SPR; SPR buffer with 1 mM MgCl2, pH 7.4; Chi2 23.87; details: tags: none stated; commercial human alpha-amylase, Lee Biosolutions; label: 3' poly(dA)20 captured on biotin-poly(dT)20
Protocol: as §1, §2

alpha-amylase [5] = target: T1, alpha-amylase; assay: SPR; SPR buffer with 1 mM MgCl2, pH 7.4; Chi2 10.58; details: tags: none stated; commercial human alpha-amylase, Lee Biosolutions; label: 3' poly(dA)20 captured on biotin-poly(dT)20
Protocol: as §1, §2

alpha-amylase [6] = target: T1, alpha-amylase; assay: SPR; SPR buffer with 1 mM MgCl2, pH 7.4; Chi2 3.26; details: tags: none stated; commercial human alpha-amylase, Lee Biosolutions; label: 3' poly(dA)20 captured on biotin-poly(dT)20
Protocol: as §1, §2

chromogranin A (CgA) = target: T2, chromogranin A (CgA) (Homo sapiens, UniProt P10645 P10645:19-457); assay: capillary electrophoresis specificity control; details: tags: N-terminal His-tag; full length, Creative BioMart CHGA-26904TH; label: 5' TYE665
T2 sequence: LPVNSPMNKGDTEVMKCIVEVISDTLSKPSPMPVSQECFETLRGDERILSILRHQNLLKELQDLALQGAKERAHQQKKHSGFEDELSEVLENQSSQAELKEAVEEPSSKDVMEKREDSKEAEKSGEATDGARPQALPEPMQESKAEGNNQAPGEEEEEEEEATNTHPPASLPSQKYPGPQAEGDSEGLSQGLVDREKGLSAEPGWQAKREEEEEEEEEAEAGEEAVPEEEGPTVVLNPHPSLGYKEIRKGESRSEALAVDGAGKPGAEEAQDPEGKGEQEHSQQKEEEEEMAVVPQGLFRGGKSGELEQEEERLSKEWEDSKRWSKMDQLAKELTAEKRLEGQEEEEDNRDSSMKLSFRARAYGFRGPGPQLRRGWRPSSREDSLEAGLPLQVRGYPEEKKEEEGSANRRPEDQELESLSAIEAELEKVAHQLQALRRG
Protocol: (§3) Reaction solutions containing the labeled aptamer (SEQ ID NO: 1) were prepared. Each of the reaction solutions was subjected to CAE under the following conditions. The reaction solution was caused to migrate while separating the components therefrom, and the fluorescence at a maximum absorption wavelength (665 nm) of the fluorescent substance was measured. As the reaction solutions, the following four types of reaction solutions were used: a reaction solution 1 containing the labeled aptamer only; a reaction solution 2 containing the labeled aptamer and the α-amylase; a reaction solution 3 containing the labeled aptamer and the saliva; and a reaction solution 4 containing the labeled aptamer as the negative control and the saliva. In each of the reaction solutions, the concentration of the labeled aptamer was 200 nmol/L. In the reaction solution 2, the concentration of the α-amylase was 2 μmol/L. In the reaction solutions 3 and 4, the concentration of the saliva was 10%. The reminder of each of the reaction solutions was a buffer solution. The composition of the buffer solution was as follows: 40 mmol/L HEPES (pH 7.5), 125 mmol/L NaCl, 5 mmol/L KCl, and 1 mmol/L MgCl₂.
Preparation of the reaction solution 2 and the binding ability analysis by CAE were carried out in the same manner as in the above item (3), except that the labeled aptamers (SEQ ID NOs: 1, 2, 3, and 19) were used. Further, in order to examine the specificity of the labeled aptamers to the α-amylase, the binding ability analysis by CAE was performed in the same manner as in the case where the above-described reaction solution 2 was used, except that, instead of the α-amylase, human chromogranin A (CgA, recombinant full length protein, Creative BioMart, #CHGA-26904TH) or human IgA (secretory, Biomedicals, LLC-Cappel Products, #55905), each having a His-tag fused at the N terminus were used.

alpha-amylase [7] = target: T1, alpha-amylase; assay: capillary electrophoresis; 200 nM aptamer, 2 uM amylase, 40 mM HEPES pH 7.5, 1 mM MgCl2; details: tags: none stated; commercial human alpha-amylase, Lee Biosolutions; label: 5' TYE665
Protocol: as §3

alpha-amylase [8] = target: T1, alpha-amylase; assay: SPR; SPR buffer with 1 mM MgCl2, pH 7.4; Chi2 5.05; details: tags: none stated; commercial human alpha-amylase, Lee Biosolutions; label: 3' poly(dA)20 captured on biotin-poly(dT)20
Protocol: as §1, §2

alpha-amylase [9] = target: T1, alpha-amylase; assay: SPR; SPR buffer with 1 mM MgCl2, pH 7.4; Chi2 24.55; details: tags: none stated; commercial human alpha-amylase, Lee Biosolutions; label: 3' poly(dA)20 captured on biotin-poly(dT)20
Protocol: as §1, §2

alpha-amylase [10] = target: T1, alpha-amylase; assay: SPR; SPR buffer with 1 mM MgCl2, pH 7.4; Chi2 31.8; text says all Kd 17 nM or less; details: tags: none stated; commercial human alpha-amylase, Lee Biosolutions; label: 3' poly(dA)20 captured on biotin-poly(dT)20
Protocol: Then, the poly(dA)-added aptamer at 200 nmol/L was injected to the flow cell of the chip using an SPR buffer at a flow rate of 25 μL/min for 80 seconds, and the binding was allowed to proceed until the signal intensity reached about 800 RU. […] Subsequently, the specimen was injected using the SPR buffer at a flow rate of 50 μL/min for 120 seconds, followed by washing performed by flowing the SPR buffer under the same conditions for 300 seconds. The concentration of the human α-amylase in the specimen was set to 400 nmol/L. Signal intensity measurement was performed concurrently with the injection of the specimen and the washing with the SPR buffer. With 0 seconds being the start of the injection, the mean value of signal intensities from 115 seconds to 125 seconds was determined. […] Then, the value (B/A) obtained by dividing the protein binding measured value (B) by the aptamer immobilization measured value (A) was determined as a relative value (Relative Unit).
as §2

B1: AML1243KR8m1 (ssDNA)
DNA: GGATACCTTAACGCCGCCTATTGTGAACGACGTGAATAGTGTTTGTGGGTCCGGAGTTGCACCCGTCTCGAAATCAAAAAAAAAAAAAAAAAAAA
modifications: KS9 modified T (formula 1) at underlined T, i.e. T 3' of the 5' primer region
Kd (alpha-amylase [1]): 0.805 nM

B2: Amy_258KK10R8m1 (ssDNA)
DNA: GGTTACGCCCAGGACACATTTCAAAAGATGATGGCATACGTAAAGGGTCGAGGTAAGCTCGGTCTCCTCGGATAATCAAAAAAAAAAAAAAAAAAAA
modifications: KK10 modified T (formula 2) at double-underlined T, i.e. T 3' of the 5' primer region
Kd (alpha-amylase [2]): 2.72 nM

B3: AML1243KR8m1s65_FW_s20 (ssDNA)
DNA: TACCTTAACGCCGCCTATTGTGAACGACGTGAATAGTGTTTGTGGGTCCGGAGTTGCACCCGAAAAAAAAAAAAAAAAAAAA
modifications: KS9 modified T (formula 1) at underlined T, i.e. T 3' of the 5' primer region
Kd (alpha-amylase [3]): 0.68 nM

B4: AML1243KR8m2 (ssDNA)
DNA: GGATACCTTAACGCCGCCTATTGCTATGAGTAGTGTTTGTAGGTCTGGCATGCGAGTTGCACCCGTCTCGAAATCAAAAAAAAAAAAAAAAAAAA
modifications: KS9 modified T (formula 1) at underlined T, i.e. T 3' of the 5' primer region
Kd (alpha-amylase [4]): 2.6 nM

B5: AML1243KR8m1_KS9-3_mini (ssDNA)
DNA: GTGAACGACGTGAATAGTGTTTGTGGGTCCGGAGTTAAAAAAAAAAAAAAAAAAAA
modifications: KS9 modified T (formula 1) at all T
Kd (alpha-amylase [5]): 0.607 nM

B6: AML1243KR8m1s58_FW_s20 (ssDNA)
DNA: TACCTTAACGCCGCCTATTGTGAACGACGTGAATAGTGTTTGTGGGTCCGGAGTTAAAAAAAAAAAAAAAAAAAA
modifications: KS9 modified T (formula 1) at underlined T, i.e. T 3' of the 5' primer region
Kd (alpha-amylase [6]): 0.707 nM

B7: TYE665-AML1243KR8m1 (ssDNA)
DNA: GGATACCTTAACGCCGCCTATTGTGAACGACGTGAATAGTGTTTGTGGGTCCGGAGTTGCACCCGTCTCGAAATC
modifications: KS9 modified T (formula 1) at underlined T, i.e. T 3' of the 5' primer region
binding result (chromogranin A (CgA)): no binding | binding result (alpha-amylase [7]): binds

B8: Amy_258KK10R8m2 (ssDNA)
DNA: GGTTACGCCCAGGACACATTTCATTGATGGCATACTAAGGGTCGAGGAATTCGTAAGCTCGGTCTCCTCGGATAATCAAAAAAAAAAAAAAAAAAAA
modifications: KK10 modified T (formula 2) at double-underlined T, i.e. T 3' of the 5' primer region
Kd (alpha-amylase [8]): 2.3 nM

B9: AML1243KR8m2s49Fw_s15 (ssDNA)
DNA: TAACGCCGCCTATTGCTATGAGTAGTGTTTGTAGGTCTGGCAAAAAAAAAAAAAAAAAAAA
modifications: KS9 modified T (formula 1) at underlined T, i.e. T 3' of the 5' primer region
Kd (alpha-amylase [9]): 2.66 nM

B10: AML1243KR8m3 (ssDNA)
DNA: GGATACCTTAACGCCGCCTATTGCGAGGTGTGGCTAGTCGTTATAGGTCCACCGAGTTGCACCCGTCTCGAAATCAAAAAAAAAAAAAAAAAAAA
modifications: KS9 modified T (formula 1) at underlined T, i.e. T 3' of the 5' primer region
Kd (alpha-amylase [10]): 19.9 nM
